The target in the test is T1, Human IκBα(67-287), unhydroxylated (human, UniProt P25963 67-287).
T1 sequence (looked up): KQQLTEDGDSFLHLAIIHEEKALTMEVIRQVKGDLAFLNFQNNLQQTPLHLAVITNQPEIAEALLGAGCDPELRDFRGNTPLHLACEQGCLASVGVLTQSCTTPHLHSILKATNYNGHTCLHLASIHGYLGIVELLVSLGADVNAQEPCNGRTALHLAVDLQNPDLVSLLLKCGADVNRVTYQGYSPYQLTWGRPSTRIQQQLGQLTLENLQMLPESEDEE
Put plainly: SPR.

In paper PMC3034650 (FEBS letters, 2010) one finds Kd data, which are given here for 1 molecule.

B1: NFκB (p50(248-321)/p65(190-321)) (complex)
chain 1: LKIVRMDRTAGCVTGGEEIYLLCDKVQKDDIQIRFYEEEENGGVWEGFGDFSPTDVHRQFAIVFKTPKYKDVNI
chain 2: NTAELKICRVNRNSGSCLGGDEIFLLCDKVQKEDIEVYFTGPGWEARGSFSQADVHRQVAIVFRTPPYADPSLQAPVRVSMQLRRPSDRELSEPMEFQYLPDTDDRHRIEEKRKRTYETFKSIMKKSPFNGP
modifications: biotin at the N-terminus
Consider B1, for which binding was put at a Kd of 0.062 ± 0.012 nM.
